Measured values as given in patent publication US6586222.

Target: 35S-cysteine-labelled 26 kD proTNFα (in vitro transcribed/translated)

B1: TNFα convertase purified from HL60 cell membrane fraction (identified as PR-3) (protein)
chain: IVGGHEAQPHSRPYMASLQMRGNPGSHFCGGTLIHPSFVLTAAHCLRDIPQRLVNVVLGAHNVRTQEPTQQHFSVAQVFLNNYDAENKLNDVLLIQLSSPANLSASVATVQLPQQDQPVPHGTQCLAMGWGRVGAHDPPAQVLQELNVTVVTFFCRPHNICTFVPRRKAGICFGDSGGPLICDGIIQGIDSFVIWGCATRLFPDFFTRVALYVDWIRSTLR
cleavage of 26 kD proTNFα to the 17 kD mature form: The purified convertase was shown to cleave the 26 kD proTNFα to the 17 kD mature form.
